Consider one molecule from PMC10521239 (Protein Science : A Publication of the Protein Society, 2023).

The assay has as its target HPC4 tagged human fIX without the gamma-carboxyglutamic (GLA) domain, wild type (Homo sapiens). The experiment in a line: ELISA. A general note: In an ELISA, binding on a coated surface is turned into a signal by an enzyme label.

HPC4 tagged human fIX without the gamma-carboxyglutamic (GLA) domain, wild type (Homo sapiens), sequence (P00740 93-461): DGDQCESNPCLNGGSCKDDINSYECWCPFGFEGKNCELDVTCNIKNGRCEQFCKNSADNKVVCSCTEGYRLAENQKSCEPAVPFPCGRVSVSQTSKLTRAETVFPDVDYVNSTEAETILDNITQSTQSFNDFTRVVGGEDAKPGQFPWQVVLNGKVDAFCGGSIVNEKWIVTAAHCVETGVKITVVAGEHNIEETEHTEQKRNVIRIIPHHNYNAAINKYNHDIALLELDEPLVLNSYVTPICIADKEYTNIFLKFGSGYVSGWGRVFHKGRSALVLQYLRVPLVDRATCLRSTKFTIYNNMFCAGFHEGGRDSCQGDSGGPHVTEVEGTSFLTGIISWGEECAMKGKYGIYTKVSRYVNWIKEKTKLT

B1: anti-fIXa NN-8895 full-length mAb (antibody, V domains shown)
VH: EVQLVESGGGLVQPGRSLRLSCAASGFIFDDYAMHWVRQVPGKGLEWVSGISWNSDNIGYVDSVKGRFTISRDNAKNSLYLQMNSLRIEDTALYYCAKAFGSGSYYNGFDYWGQGALVTVSS
VL: DIQMTQSPSTLSASAGDRVTISCRASQSISSWLAWYQQKPGKAPKLLIYKASSLESGVPSRFSGSGSGTEFTLTISSLQPDDFATYYCQEYNSYIRTFGQGTKVEIK
Turning to B1, the binding result is listed as “binds”.
